{
  "source": "paper PMC2928259",
  "about": "(Biochemistry, 2010)",
  "binders": {"B1": {"name": "Nop10 (natural protein, Pyrococcus furiosus)", "chain": "MRFRIRKCPKCGRYTLKEVCPVCGEKTKVAHPPRFSPEDPYGEYRRRWKREVLGIGRKEK"}},
  "biological_target": "T1, Cbf5 (Pyrococcus furiosus, UniProt Q7LWY0 1-340)",
  "T1 sequence (looked up)": "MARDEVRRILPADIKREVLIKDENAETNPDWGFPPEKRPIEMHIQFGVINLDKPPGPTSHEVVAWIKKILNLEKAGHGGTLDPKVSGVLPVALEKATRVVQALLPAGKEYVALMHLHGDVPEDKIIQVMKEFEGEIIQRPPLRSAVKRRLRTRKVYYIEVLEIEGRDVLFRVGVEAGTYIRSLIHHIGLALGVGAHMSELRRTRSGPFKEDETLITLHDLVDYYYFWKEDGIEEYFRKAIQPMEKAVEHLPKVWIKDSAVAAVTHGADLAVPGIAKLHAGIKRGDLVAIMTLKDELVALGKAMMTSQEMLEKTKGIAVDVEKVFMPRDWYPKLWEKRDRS",
  "experiment": "crystal structure",
  "data": [
    {"binder": "B1", "values": [
      {"measurement": "binding result", "result": "binds"}
    ]}
  ]
}
